Experimental data: the supplement of paper PMC5998384

How the values were obtained:
HeLa Kyoto [1] = assay: solubility in G1/S (NP-40 vs SDS abundance) (log2 ratio); higher = more soluble; conditions: cell cycle stage: G1/S
HeLa Kyoto [2] = assay: melting temperature (median over replicates), in situ; higher = more thermally stable
HeLa Kyoto [3] = assay: solubility change mitosis vs G1/S (difference of NP-40 vs SDS log2 ratios) (log2 ratio difference); higher = more soluble in mitosis
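Throughout, for melting temperature (median over replicates), in situ: HeLa Kyoto cells synchronized by double thymidine or nocodazole block, proteins quantified by TMT10plex mass spectrometry, three independent biological replicates.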
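Throughout, for solubility change mitosis vs G1/S (difference of NP-40 vs SDS log2 ratios): synchronized HeLa Kyoto cells (double thymidine block for G1/S, nocodazole release for mitosis), protein amounts in NP-40 versus SDS lysates quantified by mass spectrometry, three biological replicates.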
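Throughout, for solubility in G1/S (NP-40 vs SDS abundance): HeLa Kyoto cells arrested at G1/S by double thymidine block, proteins quantified by TMT10plex mass spectrometry in mild NP-40 versus SDS extracts, three biological replicates.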

Sequence | solubility in G1/S (log2) (HeLa Kyoto [1]) | melting temperature (HeLa Kyoto [2]; cell cycle stage: G1/S) | melting temperature (HeLa Kyoto [2]; cell cycle stage: mitosis) | solubility change mitosis (log2) (HeLa Kyoto [3])
MATSTGRWLLLRLALFGFLWEASGGLDSGASRDDDLLLPYPRARARLPRDCTRVRAGNREHESWPPPPATPGAGGLAVRTFVSHFRDRAVAGHLTRAVEPLRTFSVLEPGGPGGCAARRRATVEETARAADCRVAQNGGFFRMNSGECLGNVVSDERRVSSSGGLQNAQFGIRRDGTLVTGYLSEEEVLDTENPFVQLLSGVVWLIRNGSIYINESQATECDETQETGSFSKFVNVISARTAIGHDRKGQLVLFHADGQTEQRGINLWEMAEFLLKQDVVNAINLDGGGSATFVLNGTLASYPSDHCQDNMWRCPRQVSTVVCVHEPRCQPPDCHGHGTCVDGHCQCTGHFWRGPGCDELDCGPSNCSQHGLCTETGCRCDAGWTGSNCSEECPLGWHGPGCQRPCKCEHHCPCDPKTGNCSVSRVKQCLQPPEATLRAGELSFFTRTAWLALTLALAFLLLISTAANLSLLLSRAERNRRLHGDYAYHPLQEMNGEPLAAEKEQPGGAHNPFKD [NAGPA] | 0.327 | 54.5 °C | 55.4 °C | -0.232
MAVCGLGSRLGLGSRLGLRGCFGAARLLYPRFQSRGPQGVEDGDRPQPSSKTPRIPKIYTKTGDKGFSSTFTGERRPKDDQVFEAVGTTDELSSAIGFALELVTEKGHTFAEELQKIQCTLQDVGSALATPCSSAREAHLKYTTFKAGPILELEQWIDKYTSQLPPLTAFILPSGGKISSALHFCRAVCRRAERRVVPLVQMGETDANVAKFLNRLSDYLFTLARYAAMKEGNQEKIYMKNDPSAESEGL [MMAB] | 0.574 | 51.8 °C | 55.8 °C | 0.126
MAVLKLTDQPPLVQAIFSGDPEEIRMLIHKTEDVNTLDSEKRTPLHVAAFLGDAEIIELLILSGARVNAKDNMWLTPLHRAVASRSEEAVQVLIKHSADVNARDKNWQTPLHVAAANKAVKCAEVIIPLLSSVNVSDRGGRTALHHAALNGHVEMVNLLLAKGANINAFDKKDRRALHWAAYMGHLDVVALLINHGAEVTCKDKKGYTPLHAAASNGQINVVKHLLNLGVEIDEINVYGNTALHIACYNGQDAVVNELIDYGANVNQPNNNGFTPLHFAAASTHGALCLELLVNNGADVNIQSKDGKSPLHMTAVHGRFTRSQTLIQNGGEIDCVDKDGNTPLHVAARYGHELLINTLITSGADTAKCGIHSMFPLHLAALNAHSDCCRKLLSSGFEIDTPDKFGRTCLHAAAAGGNVECIKLLQSSGADFHKKDKCGRTPLHYAAANCHFHCIETLVTTGANVNETDDWGRTALHYAAASDMDRNKTILGNAHDNSEELERARELKEKEATLCLEFLLQNDANPSIRDKEGYNSIHYAAAYGHRQCLELLLERTNSGFEESDSGATKSPLHLAAYNGHHQALEVLLQSLVDLDIRDEKGRTALDLAAFKGHTECVEALINQGASIFVKDNVTKRTPLHASVINGHTLCLRLLLEIADNPEAVDVKDAKGQTPLMLAVAYGHIDAVSLLLEKEANVDTVDILGCTALHRGIMTGHEECVQMLLEQEVSILCKDSRGRTPLHYAAARGHATWLSELLQMALSEEDCCFKDNQGYTPLHWACYNGNENCIEVLLEQKCFRKFIGNPFTPLHCAIINDHGNCASLLLGAIDSSIVSCRDDKGRTPLHAAAFADHVECLQLLLRHSAPVNAVDNSGKTALMMAAENGQAGAVDILVNSAQADLTVKDKDLNTPLHLACSKGHEKCALLILDKIQDESLINEKNNALQTPLHVAARNGLKVVVEELLAKGACVLAVDENASRSNGPRSTPGTAVQKEE [ANKRD44] | -0.235 | 51.7 °C | 52.2 °C | -0.0872
MDALEGESFALSFSSASDAEFDAVVGYLEDIIMDDEFQLLQRNFMDKYYLEFEDTEENKLIYTPIFNEYISLVEKYIEEQLLQRIPEFNMAAFTTTLQHHKDEVAGDIFDMLLTFTDFLAFKEMFLDYRAEKEGRGLDLSSGLVVTSLCKSSSLPASQNNLRH [ARL2BP] | -0.148 | 50.9 °C | 53 °C | 0.0405
MDDSETGFNLKVVLVSFKQCLDEKEEVLLDPYIASWKGLVRFLNSLGTIFSFISKDVVSKLRIMERLRGGPQSEHYRSLQAMVAHELSNRLVDLERRSHHPESGCRTVLRLHRALHWLQLFLEGLRTSPEDARTSALCADSYNASLAAYHPWVVRRAVTVAFCTLPTREVFLEAMNVGPPEQAVQMLGEALPFIQRVYNVSQKLYAEHSLLDLP [CPTP] | -0.0351 | 49.1 °C | 48.4 °C | -0.256
MDFENLFSKPPNPALGKTATDSDERIDDEIDTEVEETQEEKIKLECEQIPKKFRHSAISPKSSLHRKSRSKDYDVYSDNDICSQESEDNFAKELQQYIQAREMANAAQPEESTKKEGVKDTPQAAKQKNKNLKAGHKNGKQKKMKRKWPGPGNKGSNALLRNSGSQEEDGKPKEKQQHLSQAFINQHTVERKGKQICKYFLERKCIKGDQCKFDHDAEIEKKKEMCKFYVQGYCTRGENCLYLHNEYPCKFYHTGTKCYQGEYCKFSHAPLTPETQELLAKVLDTEKKSCK [ZC3H8] | -0.126 | 55.1 °C | 55.1 °C | 0.444
MDLPVGPGAAGPSNVPAFLTKLWTLVSDPDTDALICWSPSGNSFHVFDQGQFAKEVLPKYFKHNNMASFVRQLNMYGFRKVVHIEQGGLVKPERDDTEFQHPCFLRGQEQLLENIKRKVTSVSTLKSEDIKIRQDSVTKLLTDVQLMKGKQECMDSKLLAMKHENEALWREVASLRQKHAQQQKVVNKLIQFLISLVQSNRILGVKRKIPLMLNDSGSAHSMPKYSRQFSLEHVHGSGPYSAPSPAYSSSSLYAPDAVASSGPIISDITELAPASPMASPGGSIDERPLSSSPLVRVKEEPPSPPQSPRVEEASPGRPSSVDTLLSPTALIDSILRESEPAPASVTALTDARGHTDTEGRPPSPPPTSTPEKCLSVACLDKNELSDHLDAMDSNLDNLQTMLSSHGFSVDTSALLDLFSPSVTVPDMSLPDLDSSLASIQELLSPQEPPRPPEAENSSPDSGKQLVHYTAQPLFLLDPGSVDTGSNDLPVLFELGEGSYFSEGDGFAEDPTISLLTGSEPPKAKDPTVS [HSF1] | 0.523 | 47.9 °C | 49.8 °C | -0.148
MDSELKEEIPVHEEFILCGGAETQVLKCGPWTDLFHDQSVKRPKLLIFIIPGNPGFSAFYVPFAKALYSLTNRRFPVWTISHAGHALAPKDKKILTTSEDSNAQEIKDIYGLNGQIEHKLAFLRTHVPKDMKLVLIGHSIGSYFTLQMLKRVPELPVIRAFLLFPTIERMSESPNGRIATPLLCWFRYVLYVTGYLLLKPCPETIKSLLIRRGLQVMNLENEFSPLNILEPFCLANAAYLGGQEMMEVVKRDDETIKEHLCKLTFYYGTIDPWCPKEYYEDIKKDFPEGDIRLCEKNIPHAFITHFNQEMADMIADSLKDDLSKM [LDAH] | 0.0802 | 52.3 °C |  | -0.331
MDTEPNPGTSSVSTTTSSTTTTTITTSSSRMQQPQISVYSGSDRHAVQVIQQALHRPPSSAAQYLQQMYAAQQQHLMLHTAALQQQHLSSSQLQSLAAVQASLSSGRPSTSPTGSVTQQSSMSQTSINLSTSPTPAQLISRSQASSSTSGSITQQTMLLGSTSPTLTASQAQMYLRAQMLIFTPATTVAAVQSDIPVVSSSSSSSCQSAATQVQNLTLRSQKLGVLSSSQNGPPKSTSQTQSLTICHNKTTVTSSKISQRDPSPESNKKGESPSLESRSTAVTRTSSIHQLIAPASYSPIQPHSLIKHQQIPLHSPPSKVSHHQLILQQQQQQIQPITLQNSTQDPPPSQHCIPLQNHGLPPAPSNAQSQHCSPIQSHPSPLTVSPNQSQSAQQSVVVSPPPPHSPSQSPTIIIHPQALIQPHPLVSSALQPGPNLQQSTANQVQATAQLNLPSHLPLPASPVVHIGPVQQSALVSPGQQIVSPSHQQYSSLQSSPIPIASPPQMSTSPPAQIPPLPLQSMQSLQVQPEILSQGQVLVQNALVSEEELPAAEALVQLPFQTLPPPQTVAVNLQVQPPAPVDPPVVYQVEDVCEEEMPEESDECVRMDRTPPPPTLSPAAITVGRGEDLTSEHPLLEQVELPAVASVSASVIKSPSDPSHVSVPPPPLLLPAATTRSNSTSMHSSIPSIENKPPQAIVKPQILTHVIEGFVIQEGLEPFPVSRSSLLIEQPVKKRPLLDNQVINSVCVQPELQNNTKHADNSSDTEMEDMIAEETLEEMDSELLKCEFCGKMGYANEFLRSKRFCTMSCAKRYNVSCSKKFALSRWNRKPDNQSLGHRGRRPSGPDGAAREHILRQLPITYPSAEEDLASHEDSVPSAMTTRLRRQSERERERELRDVRIRKMPENSDLLPVAQTEPSIWTVDDVWAFIHSLPGCQDIADEFRAQEIDGQALLLLKEDHLMSAMNIKLGPALKICARINSLKES [PHC3] | -0.44 | 46.5 °C | 50.2 °C | 0.439
